Source: US20150274828A1 (SHANGHAI SERUM BIOTECHNOLOGY, published 2015)
Positions count from the first letter of the chain named. Blank lines part the entries; values can stand above or below the binder they belong to.

Biological target: T1, EGFR-Fc fusion protein (recombinant EGFR extracellular region-Fc) (human, UniProt P00533 25-645)
T1 construct: extracellular domain; not shown: Fc part supplied by vector pABG1
Assay: BLI ForteBio QKe, biotinylated EGFR-Fc on streptavidin sensor, antibody 20 nM; fold reduction of affinity, parent Ame55 = 1;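 note: parent antibody affinity set as 1, with values giving the fold drop in affinity of each mutant antibody relative to that parent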

B1: Ame55 mutant, heavy chain 51A (antibody, V domains shown)
VH: EVQLVQSGAEVKKPGESLKISCKGSGYSFTSYWIGWVRQMPGKGLEWMGIAYPGDSDTRYSPSFQGQVTISADKSISTAYLQWSSLKASDTAMYYCARGIIYPSNVAVWGQGTLVTVSS
VL: SYELTQPPSVSVAPGQTARITCSGDALGDKYASWYQQKPGQAPVLVIYEDSKRPSGIPERFSGSNSGNTATLTISGTQAEDEADYYCSVWDGDWGMPVFGGGTKLTVLG
notes: Mutant of Ame55
- Affinity change: > 10 fold

B3: Ame55 mutant, heavy chain 54S (antibody, V domains shown)
VH: B1 VH with A51I, G54S
VL: B1 VL
notes: Mutant of Ame55
- Affinity change: 0.5 fold

B4: Ame55 mutant, heavy chain 53A (antibody, V domains shown)
VH: B1 VH with A51I, P53A
VL: B1 VL
notes: Mutant of Ame55
- Affinity change: 5 fold

B5: Ame55 mutant, heavy chain 101A (antibody, V domains shown)
VH: B1 VH with A51I, I101A
VL: B1 VL
notes: Mutant of Ame55
- Affinity change: 4 fold

B6: Ame55 mutant, heavy chain 58A (antibody, V domains shown)
VH: B1 VH with A51I, T58A
VL: B1 VL
notes: Mutant of Ame55
- Affinity change: > 10 fold

B7: Ame55 mutant, heavy chain 107G (antibody, V domains shown)
VH: B1 VH with A51I, A107G
VL: B1 VL
notes: Mutant of Ame55
- Affinity change: 1.5 fold

B10: Ame55 mutant, heavy chain 99A (antibody, V domains shown)
VH: B1 VH with A51I, G99A
VL: B1 VL
notes: Mutant of Ame55
- Affinity change: > 10 fold

B11: Ame55 mutant, heavy chain 59A (antibody, V domains shown)
VH: B1 VH with A51I, R59A
VL: B1 VL
notes: Mutant of Ame55
- Affinity change: > 10 fold

B14: Ame55 mutant, heavy chain 99S (antibody, V domains shown)
VH: B1 VH with A51I, G99S
VL: B1 VL
notes: Mutant of Ame55
- Affinity change: > 10 fold

B21: Ame55 mutant, heavy chain 100A (antibody, V domains shown)
VH: B1 VH with A51I, I100A
VL: B1 VL
notes: Mutant of Ame55
- Affinity change: 5 fold

B23: Ame55 mutant, heavy chain 56A (antibody, V domains shown)
VH: B1 VH with A51I, S56A
VL: B1 VL
notes: Mutant of Ame55
- Affinity change: 1 fold

B24: Ame55 mutant, heavy chain 104A (antibody, V domains shown)
VH: B1 VH with A51I, S104A
VL: B1 VL
notes: Mutant of Ame55
- Affinity change: 3 fold

B25: Ame55 mutant, heavy chain 54A (antibody, V domains shown)
VH: B1 VH with A51I, G54A
VL: B1 VL
notes: Mutant of Ame55
- Affinity change: > 10 fold

B30: Ame55 mutant, heavy chain 55A (antibody, V domains shown)
VH: B1 VH with A51I, D55A
VL: B1 VL
notes: Mutant of Ame55
- Affinity change: > 100 fold

B32: Ame55 mutant, heavy chain 59N (antibody, V domains shown)
VH: B1 VH with A51I, R59N
VL: B1 VL
notes: Mutant of Ame55
- Affinity change: > 10 fold

B34: Ame55 mutant, heavy chain 106A (antibody, V domains shown)
VH: B1 VH with A51I, V106A
VL: B1 VL
notes: Mutant of Ame55
- Affinity change: > 10 fold

B37: Ame55 mutant, heavy chain 60A (antibody, V domains shown)
VH: B1 VH with A51I, Y60A
VL: B1 VL
notes: Mutant of Ame55
- Affinity change: 5 fold

B40: Ame55 mutant, heavy chain 105A (antibody, V domains shown)
VH: B1 VH with A51I, N105A
VL: B1 VL
notes: Mutant of Ame55
- Affinity change: > 10 fold

B41: Ame55 mutant, heavy chain 52D (antibody, V domains shown)
VH: B1 VH with A51I, Y52D
VL: B1 VL
notes: Mutant of Ame55
- Affinity change: > 10 fold

More lines, now with the values ahead:

- Affinity change: 0.3 fold
B2: Ame55 mutant, light chain 26K(C3) (antibody, V domains shown)
VH: B1 VH with A51I
VL: B1 VL with A26K
notes: Mutant of Ame55

- Affinity change: > 10 fold
B8: Ame55 mutant, light chain 95A (antibody, V domains shown)
VH: B1 VH with A51I
VL: B1 VL with G95A
notes: Mutant of Ame55

- Affinity change: > 10 fold
B9: Ame55 mutant, light chain 95S (antibody, V domains shown)
VH: B1 VH with A51I
VL: B1 VL with G95S
notes: Mutant of Ame55

- Affinity change: 1 fold
B12: Ame55 mutant, light chain 32I (antibody, V domains shown)
VH: B1 VH with A51I
VL: B1 VL with A32I
notes: Mutant of Ame55

- Affinity change: > 10 fold
B13: Ame55 mutant, light chain 94A (antibody, V domains shown)
VH: B1 VH with A51I
VL: B1 VL with W94A
notes: Mutant of Ame55

- Affinity change: 5 fold
B15: Ame55 mutant, light chain 89L (antibody, V domains shown)
VH: B1 VH with A51I
VL: B1 VL with V89L
notes: Mutant of Ame55

- Affinity change: 2 fold
B16: Ame55 mutant, light chain 92A (antibody, V domains shown)
VH: B1 VH with A51I
VL: B1 VL with G92A
notes: Mutant of Ame55

- Affinity change: 2 fold
B17: Ame55 mutant, light chain 32V (antibody, V domains shown)
VH: B1 VH with A51I
VL: B1 VL with A32V
notes: Mutant of Ame55

- Affinity change: 2 fold
B18: Ame55 mutant, light chain 55P (antibody, V domains shown)
VH: B1 VH with A51I
VL: B1 VL with S55P
notes: Mutant of Ame55

- Affinity change: > 10 fold
B19: Ame55 mutant, light chain 91A (antibody, V domains shown)
VH: B1 VH with A51I
VL: B1 VL with D91A
notes: Mutant of Ame55

- Affinity change: 5 fold
B20: Ame55 mutant, heavy chain 108A (antibody, V domains shown)
VH: B1 VH with A51I, V108A
VL: B1 VL
notes: Mutant of Ame55

- Affinity change: 1 fold
B22: Ame55 mutant, light chain 26N(C2) (antibody, V domains shown)
VH: B1 VH with A51I
VL: B1 VL with A26N
notes: Mutant of Ame55

- Affinity change: > 10 fold
B26: Ame55 mutant, light chain 88N (antibody, V domains shown)
VH: B1 VH with A51I
VL: B1 VL with S88N
notes: Mutant of Ame55

- Affinity change: 4 fold
B27: Ame55 mutant, light chain 92S (antibody, V domains shown)
VH: B1 VH with A51I
VL: B1 VL with G92S
notes: Mutant of Ame55

- Affinity change: 0.5 fold
B28: Ame55 mutant, light chain 26G(C1) (antibody, V domains shown)
VH: B1 VH with A51I
VL: B1 VL with A26G
notes: Mutant of Ame55

- Affinity change: > 10 fold
B29: Ame55 mutant, light chain 96A (antibody, V domains shown)
VH: B1 VH with A51I
VL: B1 VL with M96A
notes: Mutant of Ame55

- Affinity change: 0.2 fold
B31: Ame55 mutant, heavy chain 107S (antibody, V domains shown)
VH: B1 VH with A51I, A107S
VL: B1 VL
notes: Mutant of Ame55

- Affinity change: 2 fold
B33: Ame55 mutant, light chain 33Y (antibody, V domains shown)
VH: B1 VH with A51I
VL: B1 VL with S33Y
notes: Mutant of Ame55

- Affinity change: 1 fold
B35: Ame55 mutant, light chain 51G (antibody, V domains shown)
VH: B1 VH with A51I
VL: B1 VL with S51G
notes: Mutant of Ame55

- Affinity change: > 10 fold
B36: Ame55 mutant, light chain 93A (antibody, V domains shown)
VH: B1 VH with A51I
VL: B1 VL with D93A
notes: Mutant of Ame55

- Affinity change: > 10 fold
B38: Ame55 mutant, light chain 90A (antibody, V domains shown)
VH: B1 VH with A51I
VL: B1 VL with W90A
notes: Mutant of Ame55

- Affinity change: 3 fold
B39: Ame55 mutant, light chain 88G (antibody, V domains shown)
VH: B1 VH with A51I
VL: B1 VL with S88G
notes: Mutant of Ame55

- Affinity change: 5 fold
B42: Ame55 mutant, light chain 88Y (antibody, V domains shown)
VH: B1 VH with A51I
VL: B1 VL with S88Y
notes: Mutant of Ame55

- Affinity change: 1 fold
B43: Ame55 mutant, light chain 92P (antibody, V domains shown)
VH: B1 VH with A51I
VL: B1 VL with G92P
notes: Mutant of Ame55

- Affinity change: 2 fold
B44: Ame55 mutant, light chain 88Q (antibody, V domains shown)
VH: B1 VH with A51I
VL: B1 VL with S88Q
notes: Mutant of Ame55

- Affinity change: 5 fold
B45: Ame55 mutant, light chain 88L (antibody, V domains shown)
VH: B1 VH with A51I
VL: B1 VL with S88L
notes: Mutant of Ame55

- Affinity change: > 100 fold
B46: Ame55 mutant, light chain 29E (antibody, V domains shown)
VH: B1 VH with A51I
VL: B1 VL with D29E
notes: Mutant of Ame55

- Affinity change: > 10 fold
B47: Ame55 mutant, light chain 88A (antibody, V domains shown)
VH: B1 VH with A51I
VL: B1 VL with S88A
notes: Mutant of Ame55
